We go through 3 molecules from US20260001933A1 (PETMEDIX, published 2026).

Like-named read-outs stand apart in the source and are kept apart here.

In assay [1] the target is T1, Human nerve growth factor (NGF) (human, UniProt P01138 122-241). The experiment in a line: cell-based or functional assay.
The target of assay [2] is T2, Canine FcRn-B2M recombinant protein (Immunitrack) (canine, UniProt A0A8I3PFR8 25-296; P19341 1-42).
T2 chain 1: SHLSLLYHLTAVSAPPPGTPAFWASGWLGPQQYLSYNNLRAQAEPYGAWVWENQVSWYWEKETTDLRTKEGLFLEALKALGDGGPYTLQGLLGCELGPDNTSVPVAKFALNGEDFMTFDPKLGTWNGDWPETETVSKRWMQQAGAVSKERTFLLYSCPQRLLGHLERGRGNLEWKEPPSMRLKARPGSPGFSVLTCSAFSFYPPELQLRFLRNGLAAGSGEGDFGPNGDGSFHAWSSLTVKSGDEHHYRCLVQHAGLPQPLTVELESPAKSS
T2 chain 2: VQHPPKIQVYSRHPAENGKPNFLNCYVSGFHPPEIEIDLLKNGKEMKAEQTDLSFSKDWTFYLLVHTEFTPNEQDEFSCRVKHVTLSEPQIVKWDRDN
The experiment in a line: SPR (Biacore 8K), canine FcRn-B2M amine-coupled on CM5, running buffer pH 6, fusion protein as analyte; steady state affinity. For orientation: Surface plasmon resonance follows binding to a sensor surface in real time, without labels.

Assay [3] concerns the target T3, Protein A (Sensor Chip Protein A, Cytiva) (UniProt P38507 212-269).
T3 construct: Commercial chip ligand; It may be a recombinant variant of staphylococcal protein A
Nature of the assay: SPR (Biacore 8K), Sensor Chip Protein A, fusion protein produced in CHO-s injected over the chip, 1:1 binding kinetic fit; column head 'Kinetics affinity KD (nM)'.

For assay [4], the target named is T4, Murine FcRn-B2M recombinant protein (Immunitrack) (murine, UniProt Q61559 22-297; P01887 21-119, limits assumed).
T4 construct: Bought reagent; also called murine neonatal receptor
T4 sequence (looked up): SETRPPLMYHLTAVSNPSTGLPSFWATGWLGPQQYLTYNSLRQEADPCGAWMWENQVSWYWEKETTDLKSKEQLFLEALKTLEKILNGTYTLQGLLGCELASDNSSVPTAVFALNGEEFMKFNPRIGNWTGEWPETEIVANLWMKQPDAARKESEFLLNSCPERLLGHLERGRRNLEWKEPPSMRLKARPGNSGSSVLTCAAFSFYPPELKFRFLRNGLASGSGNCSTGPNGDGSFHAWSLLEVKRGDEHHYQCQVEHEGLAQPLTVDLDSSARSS
T4 sequence (b2m, looked up): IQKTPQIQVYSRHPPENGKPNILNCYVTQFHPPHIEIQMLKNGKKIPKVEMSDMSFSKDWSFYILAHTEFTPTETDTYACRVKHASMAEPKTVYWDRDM
Nature of the assay: SPR (Biacore 8K), murine FcRn-B2M amine-coupled on CM5, running buffer pH 6, fusion protein as analyte; steady state affinity.

For assay [5], the target named is T3, Protein A (Sensor Chip Protein A, …). Nature of the assay: SPR (Biacore 8K), Sensor Chip Protein A, fusion protein produced in CHOZN injected over the chip, 1:1 binding kinetic fit; column head 'Kinetics affinity KD (nM)'.
Assay [6] addresses T5, Rat nerve growth factor (NGF) (rat, UniProt P25427 122-241).
T5 construct: Bought reagent; also called rat NGF
Nature of the assay: SPR (Biacore 8K), PetML119 captured on Protein A chip, rat NGF as analyte, multi-cycle kinetics; column head 'Kinetics affinity KD (nM)'.

Assay [7] has as its target T1, Human nerve growth factor (NGF). The experiment in a line: SPR (Biacore 8K), PetML119 captured on Protein A chip, human NGF as analyte, multi-cycle kinetics; column head 'Kinetics affinity KD (nM)'.
Assay [8] addresses T4, Murine FcRn-B2M recombinant protein …. Nature of the assay: SPR (Biacore 8K), murine FcRn-B2M amine-coupled on CM5, running buffer pH 6, fusion protein as analyte; steady state affinity. The source holds these as a separate data set.
Assay [9] addresses T2, Canine FcRn-B2M recombinant protein …. The experiment in a line: SPR (Biacore 8K), canine FcRn-B2M amine-coupled on CM5, running buffer pH 6, fusion protein as analyte; steady state affinity.
In assay [10] the target is T1, Human nerve growth factor (NGF). Nature of the assay: SPR, kinetic fit (caption of panel 7d: hNGF; BedinvetmAb; 1:1 binding); the set-up for Bedinvetmab is not described in the text; column head 'Kinetics affinity KD (nM)'.

B1: PetML119 (canine p75NTR ECD-canine IgGB wt Fc protein fusion) (Fc fusion)
chain: KEACPTGLYTHSGECCKACNLGEGVAQPCGANQTVCEPCLDSVTFSDVVSATEPCKPCTECVGLQSMSAPCVEADDAVCRCAYGYYQDETTGRCEACRVCEAGSGLVFSCQDRQNTVCEECPDGTYSDEANHVDPCLPCTVCEDTERQLRECTRWADAECEEIPGGGGRENGRVPRPPDCPKCPAPEMLGGPSVFIFPPKPKDTLLIARTPEVTCVVVDLDPEDPEVQISWFVDGKQMQTAKTQPREEQFNGTYRVVSVLPIGHQDWLKGKQFTCKVNNKALPSPIERTISKARGQAHQPSVYVLPPSREELSKNTVSLTCLIKDFFPPDIDVEWQSNGQQEPESKYRTTPPQLDEDGSYFLYSKLSVDKSRWQRGDTFICAVMHEALHNHYTQKSLSHSPGK
notes: Glycosylated, made in CHO cells; also called Fc-Bwt; Sample 1
Regarding B1, in assay [1], the “IC50 (nM), inhibition of NGF-dependent TF-1 cell proliferation” value is 15.2 nM. Moreover, the Kd in assay [2] came to 6000 nM; in assay [3], 2.8 nM; in assay [4], 2000 nM; in assay [5], 1.3 nM; in [6], 0.12 nM; in [7], 0.12 nM.

B2: PetML122 (canine p75NTR ECD-canine Fc YTE protein fusion) (Fc fusion)
chain: KEACPTGLYTHSGECCKACNLGEGVAQPCGANQTVCEPCLDSVTFSDVVSATEPCKPCTECVGLQSMSAPCVEADDAVCRCAYGYYQDETTGRCEACRVCEAGSGLVFSCQDRQNTVCEECPDGTYSDEANHVDPCLPCTVCEDTERQLRECTRWADAECEEIPGGGGRENGRVPRPPDCPKCPAPEMLGGPSVFIFPPKPKDTLYITREPEVTCVVVDLDPEDPEVQISWFVDGKQMQTAKTQPREEQFNGTYRVVSVLPIGHQDWLKGKQFTCKVNNKALPSPIERTISKARGQAHQPSVYVLPPSREELSKNTVSLTCLIKDFFPPDIDVEWQSNGQQEPESKYRTTPPQLDEDGSYFLYSKLSVDKSRWQRGDTFICAVMHEALHNHYTQKSLSHSPGK
notes: also called Fc-B-YTE; Sample 2
As for B2, the Kd in [5] was 15 nM; in [8], 90 nM; in [9], 400 nM.

B3: Bedinvetmab (antibody, V domains shown)
VH: EVQLVESGGDLVKPGGSLRLSCVASGFTFSSHGMHWVRQSPGKGLQWVAVINSGGSSTYYTDAVKGRFTISRDNAKNTVYLQMNSLRAEDTAMYYCAKESVGGWEQLVGPHFDYWGQGTLVIVSS
VL: QSVLTQPTSVSGSLGQRVTISCSGSTNNIGILGASWYQLFPGKAPKLLVYGNGNRPSGVPDRFSGADSGDSVTLTITGLQAEDEADYYCQSFDTTLGAHVFGGGTHLTVL
On to B3, for which the “IC50 (nM), inhibition of NGF-dependent TF-1 cell proliferation” value in assay [1] worked out at 1.65 nM. Moreover, the Kd in assay [10] came to 0.073 nM.

Usually Kd stands for the constant that tells how readily two partners part at equilibrium.
